According to patent publication US20180313827A1:

Columns and labels:
[1] = target: Ddx4_N1_1 (disordered N-terminus of Ddx4 protein, forming Ddx4N1 membraneless organelles / proteinaceous phase) (Homo sapiens (Human)) (UniProt Q9NQI0); assay: confocal fluorescence microscopy, partitioning inside vs outside Ddx4N1 organelles in vitro; 5 µM, 150 mM NaCl
[2] = target: Ddx4_N1_1 (disordered N-terminus of Ddx4 protein, forming Ddx4N1 membraneless organelles / proteinaceous phase) (Homo sapiens (Human)) (UniProt Q9NQI0); assay: confocal fluorescence microscopy, partitioning inside vs outside Ddx4N1 organelles in vitro; 11.8 µM, 175 mM NaCl

Chain of UniProt Q9NQI0 (Q9NQI0 other isoform, or with tags, fused parts or gaps limits assumed): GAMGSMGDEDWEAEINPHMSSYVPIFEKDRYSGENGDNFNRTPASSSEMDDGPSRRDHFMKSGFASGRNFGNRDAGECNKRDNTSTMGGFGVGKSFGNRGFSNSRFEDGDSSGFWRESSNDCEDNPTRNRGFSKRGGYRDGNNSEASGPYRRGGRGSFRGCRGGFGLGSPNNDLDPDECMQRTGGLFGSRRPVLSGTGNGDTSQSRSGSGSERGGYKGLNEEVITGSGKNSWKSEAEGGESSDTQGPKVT

Row | ΔGpart (partition free energy into Ddx4N1 organelles) [1] [kJmol^-1] | ΔGpart (partition free energy into Ddx4N1 organelles) [2] [kJmol^-1] | Substance
1 | 1.6 |  | GFP^-30 (acidic GFP, -30 surface charge)
2 |  | -7.8 | aB_GFP (alphaB-crystallin fused to GFP, oligomer)
